Measurements reported in patent US20160194391A1 (AstraZeneca / MedImmune, published 2016).
Where two headings read alike, the source gives them in different places.

Columns and labels:
[1] = biological target: T1, IL-23 p40-p19-His (human); experiment: ELISA on IL-23 p40-p19-His
T1 construct: Single-chain fusion coated on the IL-23 ELISA plates; also called p40:p19-6×HIS
T1 chain: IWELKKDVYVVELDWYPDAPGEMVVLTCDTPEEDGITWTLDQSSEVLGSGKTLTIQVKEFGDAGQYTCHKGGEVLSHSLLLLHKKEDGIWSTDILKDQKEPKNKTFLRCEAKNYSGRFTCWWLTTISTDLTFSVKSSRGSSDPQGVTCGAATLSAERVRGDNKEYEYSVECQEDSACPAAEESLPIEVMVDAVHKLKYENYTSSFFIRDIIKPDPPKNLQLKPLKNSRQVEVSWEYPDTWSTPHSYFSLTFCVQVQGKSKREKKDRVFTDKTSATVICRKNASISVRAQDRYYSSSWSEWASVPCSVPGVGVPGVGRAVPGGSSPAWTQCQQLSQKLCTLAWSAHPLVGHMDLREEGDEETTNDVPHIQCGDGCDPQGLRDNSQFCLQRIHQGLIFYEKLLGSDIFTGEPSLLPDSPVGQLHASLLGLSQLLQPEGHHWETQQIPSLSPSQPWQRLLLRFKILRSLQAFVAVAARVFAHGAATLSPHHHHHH

[2] = biological target: T2, monkey IL-12 (macaque) (macaque, UniProt P48091 23-219; P48095 23-328); experiment: cell-based or functional assay
T2 sequence (looked up) 1: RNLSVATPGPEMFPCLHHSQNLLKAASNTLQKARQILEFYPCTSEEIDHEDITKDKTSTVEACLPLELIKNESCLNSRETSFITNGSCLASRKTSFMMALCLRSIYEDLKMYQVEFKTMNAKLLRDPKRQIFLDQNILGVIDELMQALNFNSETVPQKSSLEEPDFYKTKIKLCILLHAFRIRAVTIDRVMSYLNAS
T2 sequence (looked up) 2: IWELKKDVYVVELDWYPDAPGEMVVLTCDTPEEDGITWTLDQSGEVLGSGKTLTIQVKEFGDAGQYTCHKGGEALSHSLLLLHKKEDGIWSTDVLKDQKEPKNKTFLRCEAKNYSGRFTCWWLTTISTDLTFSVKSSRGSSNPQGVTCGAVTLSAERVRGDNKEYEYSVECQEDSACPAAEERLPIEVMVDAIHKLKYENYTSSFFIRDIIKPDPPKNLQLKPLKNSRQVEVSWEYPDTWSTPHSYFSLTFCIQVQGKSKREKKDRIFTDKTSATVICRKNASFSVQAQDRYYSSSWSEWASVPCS

[3] = biological target: T3, human IL-12 (human, UniProt P29459 23-219; P29460 23-328); experiment: IL-12 binding assay of the selection not described
T3 construct: Bioassay used Prospec-Tany Cyt-362
T3 sequence (looked up) 1: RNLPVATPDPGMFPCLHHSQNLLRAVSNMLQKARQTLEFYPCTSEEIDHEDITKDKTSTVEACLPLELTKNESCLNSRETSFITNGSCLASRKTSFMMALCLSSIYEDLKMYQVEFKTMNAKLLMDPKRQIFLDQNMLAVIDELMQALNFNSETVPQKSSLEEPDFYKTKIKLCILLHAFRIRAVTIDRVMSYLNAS
T3 sequence (looked up) 2: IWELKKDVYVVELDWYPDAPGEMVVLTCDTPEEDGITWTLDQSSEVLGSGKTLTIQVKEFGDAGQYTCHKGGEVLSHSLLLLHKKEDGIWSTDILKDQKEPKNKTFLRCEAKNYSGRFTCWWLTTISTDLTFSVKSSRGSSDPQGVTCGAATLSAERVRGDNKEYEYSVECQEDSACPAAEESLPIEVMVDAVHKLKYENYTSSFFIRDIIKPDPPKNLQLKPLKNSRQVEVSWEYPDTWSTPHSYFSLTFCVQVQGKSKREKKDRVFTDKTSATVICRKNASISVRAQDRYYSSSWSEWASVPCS

[4] = biological target: T4, human dimeric IL-23 (eBiosciences 34-8239) (human, UniProt P29460 23-328; Q9NPF7 20-189); experiment: cell-based or functional assay
T4 sequence (looked up) 1: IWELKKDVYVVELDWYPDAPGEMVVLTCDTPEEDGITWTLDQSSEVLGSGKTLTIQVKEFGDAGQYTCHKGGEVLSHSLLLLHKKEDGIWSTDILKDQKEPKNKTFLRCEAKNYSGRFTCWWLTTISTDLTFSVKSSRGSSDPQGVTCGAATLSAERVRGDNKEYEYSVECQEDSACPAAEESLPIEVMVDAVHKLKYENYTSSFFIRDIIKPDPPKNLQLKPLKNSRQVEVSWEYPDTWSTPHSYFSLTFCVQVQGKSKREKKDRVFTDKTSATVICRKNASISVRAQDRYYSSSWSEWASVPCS
T4 sequence (looked up) 2: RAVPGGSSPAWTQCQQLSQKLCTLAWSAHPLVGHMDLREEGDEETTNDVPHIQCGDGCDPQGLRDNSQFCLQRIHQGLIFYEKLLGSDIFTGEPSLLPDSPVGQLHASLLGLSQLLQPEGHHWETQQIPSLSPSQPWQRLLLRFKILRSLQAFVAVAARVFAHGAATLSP

[5] = biological target: T4, human dimeric IL-23 (eBiosciences …); experiment: cell-based or functional assay; remark: listed apart in the source
[6] = biological target: T2, monkey IL-12 (macaque); experiment: cell-based or functional assay; remark: listed apart in the source
[7] = biological target: human IL-6 (human, UniProt P05231 30-212); experiment: cell-based or functional assay
[8] = biological target: T4, human dimeric IL-23 (eBiosciences …); experiment: cell-based or functional assay; remark: listed apart in the source
[9] = biological target: T4, human dimeric IL-23 (eBiosciences …); experiment: cell-based or functional assay; remark: listed apart in the source
[10] = biological target: T5, primate IL-23 (p40:p19 fusion, 6×HIS) (primate); experiment: cell-based or functional assay
T5 chain: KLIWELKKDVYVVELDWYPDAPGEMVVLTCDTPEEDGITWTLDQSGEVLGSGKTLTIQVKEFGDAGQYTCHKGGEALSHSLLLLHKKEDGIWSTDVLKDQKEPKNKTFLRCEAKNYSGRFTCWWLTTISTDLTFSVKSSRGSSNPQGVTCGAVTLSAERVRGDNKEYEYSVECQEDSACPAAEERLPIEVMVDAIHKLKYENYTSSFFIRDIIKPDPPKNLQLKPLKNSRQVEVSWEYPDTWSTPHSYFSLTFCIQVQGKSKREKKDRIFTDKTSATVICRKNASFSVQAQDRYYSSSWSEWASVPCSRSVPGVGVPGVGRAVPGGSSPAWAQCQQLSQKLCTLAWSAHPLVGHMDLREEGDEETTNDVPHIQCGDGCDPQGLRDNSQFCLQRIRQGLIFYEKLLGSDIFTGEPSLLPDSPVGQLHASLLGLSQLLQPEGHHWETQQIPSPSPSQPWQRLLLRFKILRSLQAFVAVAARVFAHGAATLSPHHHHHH

[11] = biological target: T4, human dimeric IL-23 (eBiosciences …); experiment: cell-based or functional assay; remark: listed apart in the source
[12] = biological target: T4, human dimeric IL-23 (eBiosciences …); experiment: SPR; format for the anti-IL-23 scFv alone not described
[13] = biological target: T4, human dimeric IL-23 (eBiosciences …); experiment: SPR (SensiQ Pioneer), mAb captured on protein G, human dimeric IL-23 as analyte (1-100 nM), 25 C, 1:1 model; the sentence names no analyte
Description: Equilibrium constants for rabbit human chimeric mAbs were determined by binding the mAb to the protein G coated chip followed by binding of each analyte (IL-6 or IL-23) to its respective mAb. In order to minimize mass transfer effects, the surface densities of the mAbs for each analyte were adjusted so that as analyte binding approached saturation its corresponding RU fell between 200 and 300. […] For each binding and dissociation cycle the chip surface was regenerated with 15 uL of 20 mM NaOH (5671-02, Mallinckrodt Baker, Philliphsburg, N.J.). The assay temperature was maintained at 25° C. with an analyte flow rate of 50 μL/min and included a 2 minute association phase and 10-30 minute dissociation phase. The on/off rates (kₐ/kd) and dissociation constants (KD) were determined using the format described above along with pseudo-first-order 1:1 interaction model software (Qdat, ICx Nomadics, Stillwater, Okla.).

[14] = biological target: T4, human dimeric IL-23 (eBiosciences …); experiment: cell-based or functional assay; remark: listed apart in the source
[15] = biological target: T3, human IL-12; experiment: cell-based or functional assay

| binding result [1] | IC50 (read off the curve) (interferon-gamma from NK92 cells, OD450) [2] [ng/mL] | binding result [3] | EC50: concentration necessary to inhibit bioactivity of 50 pg/ml of IL-6 [4] [ng/mL] | IC50 (read off the curve) [6] [ng/mL] | IC50 (read off the curve) (IL-17 from mouse splenocytes, OD450) [10] [ng/mL] | further results | Binder |
| --- | --- | --- | --- | --- | --- | --- | --- |
| binds | ~4 | binds | 0.385 | ~4 |  | IC50 (read off the curve) (IL-17 from mouse splenocytes, OD450) [5]: ~2 ng/mL | 45G5 chimeric mAb (antibody, V domains shown, Rabbit/human chimeric IgG (human IgG1, kappa); HEK293; also called mAb 45G5) VH: QSVEESGGRLVTPGTPLTLTCTVSGFSLSVYPINWVRQAPGKGLGWIGIINDVDDTAYSAWAKGRFTISKASSTTVDLKITSPTTEDTATYFCARGYLSYAYAGDAFDPWGPGTLVTVSS VL: AVLTQTPSPVSAAVGGTVTIKCQSSQSIYNNNLLSWYQQKPGQPPRLLIHFASTLASGVPDRFSGSGSGTQFTLTISGVQCDDAATYYCLGGYDDDADTAFGGGTEVVVV |
|  |  |  |  |  |  | IC50 (read off the curve) (B9 proliferation, OD570-600) [7]: ~0.7 ng/mL | 9C8 Hum scFv v3-2 (scFv) scFv: DIQMTQSPSSVSASVGDRVTITCQASQSISNELSWYQQKPGKAPKLLIYRTSTLASGVPSRFSGSGSGTDFTLTISSLQPEDFATYYCQQGYNSNDVDNVFGGGTKVEIKGGGGSGGGGSGGGGSGGGGSEVQLVESGGGLVQPGGSLRLSCAASGIDLSSYDMSWVRQAPGKGLEWVGYIYTDSSTYYANWAKGRFTISRDNSKNTLYLQMNSLRAEDTAVYYCARGSTDYAFDTRLDLWGQGTLVTVSSGPPPPPHHHHHH |
|  |  |  |  |  |  | EC50 (pg/mL) of the folded scFv-PEG [8]: 1040 pg/mL | 31A12c-PEG20 (scFv, C-terminal azidohomoalanine (Aha) conjugated to 20 kDa linear PEG bis-alkyne) scFv: DIQLTQSPSFLSASVGDRVTITCQASEDIESYLAWYQQKPGKAPKLLIYSASTLTSGVPSRFSGSGSGTEFTLTISSLQPEDFATYYCLGADDTTTVFGGGTKVEIKGGGGSGGGGSGGGGSGGGGSEVQLVESGGGLVQPGGSLRLSCTASGFSLSSYWLTWVRQAPGKGLEWVGTIATSSTYYASWAKGRFTISRDNSKNTLYLQLNSLRAEDTAVYYCARGLTTDYDLDLWGQGTLVTVSS |
| binds |  | binds | 0.603 |  | ~1 | IC50 (read off the curve) (IL-17 from mouse splenocytes, OD450) [9]: ~1 ng/mL | 1H1 chimeric mAb (antibody, V domains shown, Rabbit/human chimeric IgG (human IgG1, kappa); HEK293; also called mAb 1H1) VH: QELKESGGRLVTPGGSLTLSCTASGLTLGSYSMTWVRQAPGKGLEWMGVIGVGGTLNYASWAQGRFTISKPSSTTVDLKMTSLTTEDTATYFCARGTYSGDSIWGPGTLVTVSS VL: DVVMTQTPSSTSAAVGGTVTIKCQASQSISSWLAWYQQKPGQPPKPLIVRASILTSGVPSRFKGSRSGTEYTLTISGVQREDAATYYCLGGDGHVSNFGGGTELEILR |
|  | ~10 |  |  | ~10 |  | EC50, inhibition of IL-23 induced IL-17 secretion by mouse spleen cells [11]: 1.37 ng/mL; Kd [12]: 0.092 nM; koff [12]: 7.11e-05 s⁻¹; kon [12]: 773000 M⁻¹ s⁻¹ | 31A12 humanized scFv (mammalian expressed) (scFv, also called Anti IL-23 31A12 scFv; 31A12 scFv) scFv: DIQLTQSPSFLSASVGDRVTITCQASEDIESYLAWYQQKPGKAPKLLIYSASTLTSGVPSRFSGSGSGTEFTLTISSLQPEDFATYYCLGADDTTTVFGGGTKVEIKGGGGSGGGGSGGGGSGGGGSEVQLVESGGGLVQPGGSLRLSCTASGFSLSSYWMTWVRQAPGKGLEWVGTIATSSTYYASWAKGRFTISRDNSKNTLYLQMNSLRAEDTAVYYCARGLTTDYDLDLWGQGTLVTVSSGPPPPHHHHHH |
| binds |  |  | 0.603 |  | ~4 | Kd [13]: 0.221 nM; koff [13]: 8.94e-05 s⁻¹; kon [13]: 403000 M⁻¹ s⁻¹; IC50 (read off the curve) (IL-17 from mouse splenocytes, OD450) [14]: ~0.8 ng/mL; IC50 (read off the curve) (interferon-gamma from NK92 cells, OD450) [15]: ~0.8 ng/mL | 22H8 chimeric mAb (antibody, V domains shown, Rabbit/human chimeric IgG (human IgG1, kappa); HEK293; also called mAb 22H8) VH: QSLEESGGRLVTPGTPLTLTCTVSGFSLSTYTMNWVRQSPGKGLEWIGAISYDGGTAYANWAKGRFTISKTSTTVDLQIASPTTEDTATYFCARGFYVYAYIGDAFDPWGPGTLVTVSS VL: AVLTQTPSPVSATVGGTVTIKCQSSQTVYKNNLLSWYQQKPGQPPKLLIYLASTLASGVPSRFSGSGSGTQFTLTISGVQCDDAATYYCLGGYDDDADTAFGGGTEVVVVR |
